Test [1] concerns the target T1, CD3 on HBP-ALL (CD3+) cells (UniProt P07766 23-207).
T1 construct: whole, on cells; CD3 is a multi-chain complex
In words: live cell ELISA on HBP-ALL (CD3+) cells; OD450 grade at 1/60 dilution. How it is done:
(§1) These variants were tested for their ability to bind to cells expressing the target antigen using a live cell ELISA binding assay using filter plates and wash steps carried out using a vacuum manifold (method developed by Anne Marcil at the National Research Council, Montreal, Canada). The method was carried out as follows. Cells were maintained in exponential growth phase and then washed, counted and distributed at 10E5 cells per well in 50% medium, 50% blocking buffer. Dilutions of variants in blocking buffer were added to the cells and incubated for 1 hour at 4° C. After collection and four washes in medium, an HRP-conjugated goat anti-human IgG was added to cells which were incubated for 1 hour at 4° C. After collection and four washes in medium and 3 washes in PBS, TMB substrate was added to cells which were incubated for 25 minutes at room temperature. The reaction was stopped by addition of H₂SO4 and OD read at 450 nm. The ELISA results are depicted in Tables 17 and 18. A, B, and C refer to the ratio of Chain A to Chain B used in expression of the variant: Ratio A=Chain A/Chain B=1:1 A/B=50%/50%; Ratio B=Chain A/Chain B=2:1 A/B=66%/34%; Ratio C=Chain A/Chain B=1:2 A/B=34%/66%.
(In an ELISA, binding on a coated surface is turned into a signal by an enzyme label.)

The target of test [2] is T2, CD19 on RAJI (CD19+) cells (UniProt P15391 20-556, limits assumed).
T2 construct: whole, on cells
T2 sequence (looked up): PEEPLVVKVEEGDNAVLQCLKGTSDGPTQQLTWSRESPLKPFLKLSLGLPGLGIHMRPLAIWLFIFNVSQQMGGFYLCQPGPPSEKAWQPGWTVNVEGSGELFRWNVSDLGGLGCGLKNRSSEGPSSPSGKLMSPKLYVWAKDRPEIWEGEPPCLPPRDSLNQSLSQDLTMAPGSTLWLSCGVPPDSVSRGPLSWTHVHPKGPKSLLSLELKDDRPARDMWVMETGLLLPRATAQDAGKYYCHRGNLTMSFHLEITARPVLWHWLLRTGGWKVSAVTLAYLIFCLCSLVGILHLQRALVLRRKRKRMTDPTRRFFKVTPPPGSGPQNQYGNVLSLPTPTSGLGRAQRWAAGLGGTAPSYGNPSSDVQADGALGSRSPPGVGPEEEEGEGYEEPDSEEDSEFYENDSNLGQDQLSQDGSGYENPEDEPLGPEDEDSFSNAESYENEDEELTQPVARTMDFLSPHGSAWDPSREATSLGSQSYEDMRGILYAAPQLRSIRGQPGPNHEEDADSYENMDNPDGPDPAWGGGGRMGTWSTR
In words: live cell ELISA on RAJI (CD19+) cells; OD450 grade at 1/60 dilution. How it is done: as §1

The target in test [3] is T1, CD3 on HBP-ALL (CD3+) cells. In words: live cell ELISA on HBP-ALL (CD3+) cells. As to the method: as §1

Numbering of substitutions follows the chain as printed.

B1: scMAB_LCI_CD3xCD19_GS20-GS24_GS20-GS24, variant 1840 (bispecific antibody)
chain 1: QVQLVQSGGGVVQPGRSLRLSCKASGYTFTRYTMHWVRQAPGKGLEWIGYINPSRGYTNYNQKVKDRFTISRDNSKNTAFLQMDSLRPEDTGVYFCARYYDDHYCLDYWGQGTPVTVSSGGGGSGGGGSGGGGSGGGGSDIQMTQSPSSLSASVGDRVTITCSASSSVSYMNWYQQTPGKAPKRWIYDTSKLASGVPSRFSGSGSGTDYTFTISSLQPEDIATYYCQQWSSNPFTFGQGTKLQITRTVAAPSVFIFPPSDEQLKSGTASVVCLLNNFYPREAKVQWKVDNALQSGNSQESVTEQDSKDSTYSLSSTLTLSKADYEKHKVYACEVTHQGLSSPVTKSFNRGECGGGGSGGGGSGGGGSGGGGSGGGGSTKGPSVFPLAPSSKSTSGGTAALGCLVKDYFPEPVTVSWNSGALTSGVHTFPAVLQSSGLYSLSSVVTVPSSSLGTQTYICNVNHKPSNTKVDKKVEPKSCDKTHTCPPCPAPELLGGPSVFLFPPKPKDTLMISRTPEVTCVVVDVSHEDPEVKFNWYVDGVEVHNAKTKPREEQYNSTYRVVSVLTVLHQDWLNGKEYKCKVSNKALPAPIEKTISKAKGQPREPQVYVYPPSRDELTKNQVSLTCLVKGFYPSDIAVEWESNGQPENNYKTTPPVLDSDGSFALVSKLTVDKSRWQQGNVFSCSVMHEALHNHYTQKSLSLSPGK
chain 2: not shown
notes: also called 1840 A
Take B1: the results for the OD450 in test [1] and in test [2] were 1 to 2 od and above 2 od, respectively.

B2: scMAB_LCI_CD3xCD19_GS20-GS24_GS20-GS24_SS, variant 1842 (bispecific antibody, human IgG1, kappa)
chain 1: B1 chain 1 with G44C, Q238C
chain 2: not shown
notes: Heterodimeric IgG1 Fc; the CH3 mutations are already in the entries; also called 1842 B
Take B2: the OD450 in test [1] is 1 to 2 od; in test [2] it was above 2 od.

B3: scMAB_LL_CD3xCD19_HH41_GSE34, variant 1846 (bispecific antibody, human IgG1, kappa)
chain 1: DIQMTQSPSSLSASVGDRVTITCSASSSVSYMNWYQQTPGKAPKRWIYDTSKLASGVPSRFSGSGSGTDYTFTISSLQPEDIATYYCQQWSSNPFTFGQGTKLQITRTVAAPSVFIFPPSDEQLKSGTASVVCLLNNFYPREAKVQWKVDNALQSGNSQESVTEQDSKDSTYSLSSTLTLSKADYEKHKVYACEVTHQGLSSPVTKSFNRGECGGSGGGSGSSADDAKKDAAKKDDAKKDDAKKDGGGSGGGSGQVQLVQSGGGVVQPGRSLRLSCKASGYTFTRYTMHWVRQAPGKGLEWIGYINPSRGYTNYNQKVKDRFTISRDNSKNTAFLQMDSLRPEDTGVYFCARYYDDHYCLDYWGQGTPVTVSSASTKGPSVFPLAPSSKSTSGGTAALGCLVKDYFPEPVTVSWNSGALTSGVHTFPAVLQSSGLYSLSSVVTVPSSSLGTQTYICNVNHKPSNTKVDKKVEPKSCDKTHTCPPCPAPELLGGPSVFLFPPKPKDTLMISRTPEVTCVVVDVSHEDPEVKFNWYVDGVEVHNAKTKPREEQYNSTYRVVSVLTVLHQDWLNGKEYKCKVSNKALPAPIEKTISKAKGQPREPQVYVYPPSRDELTKNQVSLTCLVKGFYPSDIAVEWESNGQPENNYKTTPPVLDSDGSFALVSKLTVDKSRWQQGNVFSCSVMHEALHNHYTQKSLSLSPGK
chain 2: not shown
notes: A, B and C are the chain A : chain B DNA ratios used in expression (1:1, 2:1, 1:2); also called 1846 A; 1846 B
In the case of B3, the figures for the OD450 in test [1] and in test [2] were 1 to 2 od and above 2 od, respectively.

B4: scMAB_LL_CD3xCD19_HH41_HH41, variant 1844 (bispecific antibody, human IgG1, kappa)
chain 1: B3 chain 1
chain 2: not shown
notes: B and C are the chain A : chain B DNA ratios used in expression (2:1 and 1:2); also called 1844 B; 1844 C
In the case of B4, the OD450 in test [1] was 1 to 2 od; in test [2], above 2 od.

B5: scMAB_LL_CD3xCD19_GSE34_GSE34, variant 1845 (bispecific antibody)
chain 1: DIQMTQSPSSLSASVGDRVTITCSASSSVSYMNWYQQTPGKAPKRWIYDTSKLASGVPSRFSGSGSGTDYTFTISSLQPEDIATYYCQQWSSNPFTFGQGTKLQITRTVAAPSVFIFPPSDEQLKSGTASVVCLLNNFYPREAKVQWKVDNALQSGNSQESVTEQDSKDSTYSLSSTLTLSKADYEKHKVYACEVTHQGLSSPVTKSFNRGECSGGGSGGGSEGGGSEGGGSEGGGSEGGGSGGGSGQVQLVQSGGGVVQPGRSLRLSCKASGYTFTRYTMHWVRQAPGKGLEWIGYINPSRGYTNYNQKVKDRFTISRDNSKNTAFLQMDSLRPEDTGVYFCARYYDDHYCLDYWGQGTPVTVSSASTKGPSVFPLAPSSKSTSGGTAALGCLVKDYFPEPVTVSWNSGALTSGVHTFPAVLQSSGLYSLSSVVTVPSSSLGTQTYICNVNHKPSNTKVDKKVEPKSCDKTHTCPPCPAPELLGGPSVFLFPPKPKDTLMISRTPEVTCVVVDVSHEDPEVKFNWYVDGVEVHNAKTKPREEQYNSTYRVVSVLTVLHQDWLNGKEYKCKVSNKALPAPIEKTISKAKGQPREPQVYVYPPSRDELTKNQVSLTCLVKGFYPSDIAVEWESNGQPENNYKTTPPVLDSDGSFALVSKLTVDKSRWQQGNVFSCSVMHEALHNHYTQKSLSLSPGK
chain 2: not shown
notes: A, B and C are the chain A : chain B DNA ratios used in expression (1:1, 2:1, 1:2); also called 1845 A; 1845 B
Take B5: the OD450 is 1 to 2 od in test [1] and above 2 od in test [2].

B6: MOR208-CD19 FSA, variant 2176 (antibody, V domains shown)
VH: EVQLVESGGGLVKPGGSLKLSCAASGYTFTSYVMHWVRQAPGKGLEWIGYINPYNDGTKYNEKFQGRVTISSDKSISTAYMELSSLRSEDTAMYYCARGTYYYGTRVFDYWGQGTLVTVSS
VL: DIVMTQSPATLSLSPGERATLSCRSSKSLQNVNGNTYLYWFQQKPGQSPQLLIYRMSNLNSGVPDRFSGSGSGTEFTLTISSLEPEDFAVYYCMQHLEYPITFGAGTKLEIK
notes: Control; also called 2176 A; anti-CD19 warhead from MOR208
For the molecule B6, the binding result in test [3] was “no binding (tested: OD450 = or < negative control 1041)”.

B7: scMAB_LCI_CD3xCD19_GS15-GS24_GS15-GS24, variant 1841 (bispecific antibody, human IgG1, kappa)
chain 1: QVQLVQSGGGVVQPGRSLRLSCKASGYTFTRYTMHWVRQAPGKGLEWIGYINPSRGYTNYNQKVKDRFTISRDNSKNTAFLQMDSLRPEDTGVYFCARYYDDHYCLDYWGQGTPVTVSSGGGGSGGGGSGGGGSDIQMTQSPSSLSASVGDRVTITCSASSSVSYMNWYQQTPGKAPKRWIYDTSKLASGVPSRFSGSGSGTDYTFTISSLQPEDIATYYCQQWSSNPFTFGQGTKLQITRTVAAPSVFIFPPSDEQLKSGTASVVCLLNNFYPREAKVQWKVDNALQSGNSQESVTEQDSKDSTYSLSSTLTLSKADYEKHKVYACEVTHQGLSSPVTKSFNRGECGGGGSGGGGSGGGGSGGGGSGGGGSTKGPSVFPLAPSSKSTSGGTAALGCLVKDYFPEPVTVSWNSGALTSGVHTFPAVLQSSGLYSLSSVVTVPSSSLGTQTYICNVNHKPSNTKVDKKVEPKSCDKTHTCPPCPAPELLGGPSVFLFPPKPKDTLMISRTPEVTCVVVDVSHEDPEVKFNWYVDGVEVHNAKTKPREEQYNSTYRVVSVLTVLHQDWLNGKEYKCKVSNKALPAPIEKTISKAKGQPREPQVYVYPPSRDELTKNQVSLTCLVKGFYPSDIAVEWESNGQPENNYKTTPPVLDSDGSFALVSKLTVDKSRWQQGNVFSCSVMHEALHNHYTQKSLSLSPGK
chain 2: not shown
notes: Heterodimeric IgG1 Fc; the CH3 mutations are already in the entries; also called 1841 B
For the molecule B7, the OD450 in test [1] is 1 to 2 od; in test [2], above 2 od.

B8: scMAB_LCI_CD3xCD19_GS15-GS24_GS15-GS24_SS, variant 1843 (bispecific antibody, human IgG1, kappa)
chain 1: B7 chain 1 with G44C, Q233C
chain 2: not shown
notes: Heterodimeric IgG1 Fc; the CH3 mutations are already in the entries; also called 1843 B
With B8, the figures for the OD450 in test [1] and in test [2] were 1 to 2 od and above 2 od, respectively.

Source of the values: patent US20140072581A1 (Zymeworks, published 2014).
